According to the supplement of paper PMC9112550, “Optimization of the antimicrobial peptide Bac7 by deep mutational scanning” (BMC Biology, 2022):

Tested on: Escherichia coli TOP10
Experiment: shrunken log2 fold change of peptide-encoding DNA abundance (4.5 h post-induction vs induction); higher = less antimicrobial activity (less host growth inhibition)
Settings: time post-induction: 4.5 h; library: site-saturation at positions 5, 18, 19, 20
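Also: peptides expressed intracellularly from a pBAD plasmid library in pooled LB shake-flask culture, induced with 0.3% L-arabinose, DNA abundance read by NGS, three biological replicates, DESeq2 with apeglm shrinkage.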

Sequence | shrunken log2 fold change
RRIRYRPPRLPRPRPRPLLDPRP | -0.296
RRIRTRPPRLPRPRPRPIHWPRP | 0.0444
RRIRYRPPRLPRPRPRPHYHPRP | -0.241
RRIRERPPRLPRPRPRPHIVPRP | -0.0314
RRIRCRPPRLPRPRPRPRPMPRP | 0.443
RRIRPRPPRLPRPRPRPCLTPRP | -0.0809
RRIRHRPPRLPRPRPRPWTHPRP | -0.00208
RRIRKRPPRLPRPRPRPGEKPRP | 0.015
RRIRWRPPRLPRPRPRPYCRPRP | -0.295
RRIRSRPPRLPRPRPRPCTNPRP | -0.256
RRIRVRPPRLPRPRPRPTAAPRP | 0.09
RRIRVRPPRLPRPRPRPLYSPRP | -0.343
RRIRPRPPRLPRPRPRPKSAPRP | 0.532
RRIRTRPPRLPRPRPRPCEEPRP | 0.0871
RRIRVRPPRLPRPRPRPITRPRP | -0.0188
RRIRQRPPRLPRPRPRPFRDPRP | -0.117
RRIRWRPPRLPRPRPRPQGQPRP | 0.203
RRIRSRPPRLPRPRPRPYLDPRP | -0.175
RRIRARPPRLPRPRPRPTQIPRP | 0.553
RRIRIRPPRLPRPRPRPKHQPRP | -0.495
RRIRSRPPRLPRPRPRPHHIPRP | -1.12
RRIRPRPPRLPRPRPRPGKIPRP | -0.168

Sequence | shrunken log2 fold change
RRIRNRPPRLPRPRPRPKGKPRP | 0.0351
RRIRPRPPRLPRPRPRPLNTPRP | -0.482
RRIRGRPPRLPRPRPRPREFPRP | 1.07
RRIRDRPPRLPRPRPRPKWRPRP | 0.344
RRIRHRPPRLPRPRPRPGVFPRP | 0.0667
RRIRRRPPRLPRPRPRPIPIPRP | -0.0501
RRIRERPPRLPRPRPRPSHLPRP | -0.188
RRIRMRPPRLPRPRPRPITYPRP | -0.0199
RRIRQRPPRLPRPRPRPWLMPRP | -0.102
RRIRNRPPRLPRPRPRPLSEPRP | 0.0166
RRIRIRPPRLPRPRPRPVAWPRP | -0.0525
RRIRWRPPRLPRPRPRPSQCPRP | 0.0963
RRIRTRPPRLPRPRPRPDGVPRP | -0.0136
RRIRFRPPRLPRPRPRPMIFPRP | -0.364
RRIRCRPPRLPRPRPRPQYAPRP | -0.231
RRIRIRPPRLPRPRPRPQDDPRP | 0.0213
RRIRYRPPRLPRPRPRPMKKPRP | 0.0048
RRIRFRPPRLPRPRPRPIVVPRP | -0.0214
RRIRFRPPRLPRPRPRPPFFPRP | 0.243
RRIRQRPPRLPRPRPRPELCPRP | 0.177
RRIRRRPPRLPRPRPRPATCPRP | 0.161
RRIRHRPPRLPRPRPRPYLKPRP | -0.298

Sequence | shrunken log2 fold change
RRIRWRPPRLPRPRPRPGFNPRP | 0.00388
RRIRHRPPRLPRPRPRPEFPPRP | 0.0962
RRIRYRPPRLPRPRPRPQHDPRP | -1.4
RRIRTRPPRLPRPRPRPPSAPRP | 0.442
RRIRRRPPRLPRPRPRPYSGPRP | -0.000826
RRIRRRPPRLPRPRPRPGTDPRP | 0.0719
RRIRIRPPRLPRPRPRPSTWPRP | -0.481
RRIRERPPRLPRPRPRPWGLPRP | -0.026
RRIRERPPRLPRPRPRPANGPRP | -0.042
RRIRWRPPRLPRPRPRPIYVPRP | -0.0477
RRIRLRPPRLPRPRPRPRADPRP | 2.32
RRIRTRPPRLPRPRPRPSAQPRP | 0.0735
RRIRPRPPRLPRPRPRPRQPPRP | 0.113
RRIRFRPPRLPRPRPRPQSGPRP | -0.036
RRIRKRPPRLPRPRPRPLKPPRP | 0.238
RRIRCRPPRLPRPRPRPAGRPRP | 0.373
RRIRLRPPRLPRPRPRPASWPRP | 0.454
RRIRVRPPRLPRPRPRPMPLPRP | -0.348
RRIRDRPPRLPRPRPRPIASPRP | 0.194
RRIRTRPPRLPRPRPRPDHAPRP | 0.283
RRIRMRPPRLPRPRPRPHDHPRP | -0.0397
RRIRGRPPRLPRPRPRPWPGPRP | 0.265

Sequence | shrunken log2 fold change
RRIRARPPRLPRPRPRPDLLPRP | 0.0805
RRIRHRPPRLPRPRPRPVVHPRP | -0.115
RRIRGRPPRLPRPRPRPCGQPRP | 0.142
RRIRPRPPRLPRPRPRPFKMPRP | -0.384
RRIRIRPPRLPRPRPRPKGVPRP | -0.00153
RRIRWRPPRLPRPRPRPHGWPRP | 0.213
RRIRYRPPRLPRPRPRPCTVPRP | -0.0835
RRIRRRPPRLPRPRPRPELAPRP | 0.927
RRIRKRPPRLPRPRPRPFEQPRP | 0.0483
RRIRSRPPRLPRPRPRPVFAPRP | 0.218
RRIRFRPPRLPRPRPRPTPYPRP | 0.0647
RRIRVRPPRLPRPRPRPTCVPRP | -0.0916
RRIRLRPPRLPRPRPRPEIWPRP | 0.198
RRIRCRPPRLPRPRPRPFNRPRP | -0.466
RRIRCRPPRLPRPRPRPHTAPRP | -0.457
RRIRVRPPRLPRPRPRPAKRPRP | 0.615
RRIRGRPPRLPRPRPRPCSWPRP | 0.19
RRIRGRPPRLPRPRPRPFVGPRP | -0.26
RRIRRRPPRLPRPRPRPEDIPRP | 0.06
RRIRARPPRLPRPRPRPMSDPRP | 0.56
RRIRHRPPRLPRPRPRPIKTPRP | -0.00476
RRIRTRPPRLPRPRPRPDCDPRP | 0.209

Sequence | shrunken log2 fold change
RRIRSRPPRLPRPRPRPDEQPRP | 0.202
RRIRQRPPRLPRPRPRPWWCPRP | -0.105
RRIRTRPPRLPRPRPRPDLPPRP | 0.0603
RRIRHRPPRLPRPRPRPTLYPRP | -0.362
RRIRFRPPRLPRPRPRPGAFPRP | -0.162
RRIRFRPPRLPRPRPRPSHTPRP | -0.035
RRIRERPPRLPRPRPRPMRNPRP | -0.062
RRIRGRPPRLPRPRPRPMKCPRP | 0.0384
RRIRSRPPRLPRPRPRPVLCPRP | -0.00306
RRIRDRPPRLPRPRPRPGPIPRP | -0.0864
RRIRRRPPRLPRPRPRPFFHPRP | 0.154
RRIRTRPPRLPRPRPRPTIGPRP | -0.000966
RRIRDRPPRLPRPRPRPMLMPRP | 0.348
RRIRWRPPRLPRPRPRPVEPPRP | 0.546
RRIRHRPPRLPRPRPRPDTWPRP | -1.13
RRIRTRPPRLPRPRPRPQWIPRP | -0.809
RRIRDRPPRLPRPRPRPTQAPRP | 0.017
RRIRQRPPRLPRPRPRPLKGPRP | -0.272
RRIRNRPPRLPRPRPRPEDVPRP | -0.0153
RRIRWRPPRLPRPRPRPASVPRP | 0.00924
RRIRIRPPRLPRPRPRPHMIPRP | -0.602
